{"source": "patent US20250269012A1", "about": "(AKAMIS BIO, published 2025)", "binders": {"B1": {"name": "RAET1G3-anti-EpCAM-ScFv fusion protein (without a C-terminal tag) (other)", "chain": "GLADPHSLCYDITVIPKFRPGPRWCAVQGQVDEKTFLHYDCGSKTVTPVSPLGKKLNVTTAWKAQNPVLREVVDILTEQLLDIQLENYIPKENRMWTTVHPGARKMKEKWENDKDMTMSFHYISMGDCTGWLEDFLMGMDSTLEPSAGGTVGGGGSELVMTQSPSSLTVTAGEKVTMSCKSSQSLLNSGNQKNYLTWYQQKPGQPPKLLIYWASTRESGVPDRFTGSGSGTDFTLTISSVQAEDLAVYYCQNDYSYPLTFGAGTKLEIKGGGGSGGGGSGGGGSEVQLLEQSGAELVRPGTSVKISCKASGYAFTNYWLGWVKQRPGHGLEWIGDIFPGSGNIHYNEKFKGKATLTADKSSSTAYMQLSSLTFEDSAVYFCARLRNWDEPMDYWGQGTTVTVSS", "notes": "also called bispecific protein of NG-1112"}, "B2": {"name": "anti-EpCAM-ScFv-RAET1G3 fusion protein (without a C-terminal tag) (other)", "chain": "ELVMTQSPSSLTVTAGEKVTMSCKSSQSLLNSGNQKNYLTWYQQKPGQPPKLLIYWASTRESGVPDRFTGSGSGTDFTLTISSVQAEDLAVYYCQNDYSYPLTFGAGTKLEIKGGGGSGGGGSGGGGSEVQLLEQSGAELVRPGTSVKISCKASGYAFTNYWLGWVKQRPGHGLEWIGDIFPGSGNIHYNEKFKGKATLTADKSSSTAYMQLSSLTFEDSAVYFCARLRNWDEPMDYWGQGTTVTVSSGGGGSGLADPHSLCYDITVIPKFRPGPRWCAVQGQVDEKTFLHYDCGSKTVTPVSPLGKKLNVTTAWKAQNPVLREVVDILTEQLLDIQLENYIPKENRMWTTVHPGARKMKEKWENDKDMTMSFHYISMGDCTGWLEDFLMGMDSTLEPSAGGTV", "notes": "also called bispecific protein of NG-1111"}, "B3": {"name": "anti-EpCAM-ScFv-rigid linker-RAET1G3 fusion protein (without a C-terminal tag) (other)", "chain": "ELVMTQSPSSLTVTAGEKVTMSCKSSQSLLNSGNQKNYLTWYQQKPGQPPKLLIYWASTRESGVPDRFTGSGSGTDFTLTISSVQAEDLAVYYCQNDYSYPLTFGAGTKLEIKGGGGSGGGGSGGGGSEVQLLEQSGAELVRPGTSVKISCKASGYAFTNYWLGWVKQRPGHGLEWIGDIFPGSGNIHYNEKFKGKATLTADKSSSTAYMQLSSLTFEDSAVYFCARLRNWDEPMDYWGQGTTVTVSSTPSHLSHILPSFGLPTFNGLADPHSLCYDITVIPKFRPGPRWCAVQGQVDEKTFLHYDCGSKTVTPVSPLGKKLNVTTAWKAQNPVLREVVDILTEQLLDIQLENYIPKENRMWTTVHPGARKMKEKWENDKDMTMSFHYISMGDCTGWLEDFLMGMDSTLEPSAGGTV", "notes": "also called bispecific protein of NG-1118"}, "B4": {"name": "anti-EpCAM-ScFv-human CD19 EC domain fusion protein (without a C-terminal tag) (other)", "chain": "ELVMTQSPSSLTVTAGEKVTMSCKSSQSLLNSGNQKNYLTWYQQKPGQPPKLLIYWASTRESGVPDRFTGSGSGTDFTLTISSVQAEDLAVYYCQNDYSYPLTFGAGTKLEIKGGGGSGGGGSGGGGSEVQLLEQSGAELVRPGTSVKISCKASGYAFTNYWLGWVKQRPGHGLEWIGDIFPGSGNIHYNEKFKGKATLTADKSSSTAYMQLSSLTFEDSAVYFCARLRNWDEPMDYWGQGTTVTVSSGGGGSPEEPLVVKVEEGDNAVLQCLKGTSDGPTQQLTWSRESPLKPFLKLSLGLPGLGIHMRPLAIWLFIFNVSQQMGGFYLCQPGPPSEKAWQPGWTVNVEGSGELFRWNVSDLGGLGCGLKNRSSEGPSSPSGKLMSPKLYVWAKDRPEIWEGEPPCVPPRDSLNQSLSQDLTMAPGSTLWLSCGVPPDSVSRGPLSWTHVHPKGPKSLLSLELKDDRPARDMWVMETGLLLPRATAQDAGKYYCHRGNLTMSFHLEITARPVLWHWLLRTGGWK", "notes": "also called bispecific protein of NG-1109"}, "B5": {"name": "anti-EpCAM-ScFv-flexible linker-human CD19 EC domain fusion protein (without a C-terminal tag) (other)", "chain": "ELVMTQSPSSLTVTAGEKVTMSCKSSQSLLNSGNQKNYLTWYQQKPGQPPKLLIYWASTRESGVPDRFTGSGSGTDFTLTISSVQAEDLAVYYCQNDYSYPLTFGAGTKLEIKGGGGSGGGGSGGGGSEVQLLEQSGAELVRPGTSVKISCKASGYAFTNYWLGWVKQRPGHGLEWIGDIFPGSGNIHYNEKFKGKATLTADKSSSTAYMQLSSLTFEDSAVYFCARLRNWDEPMDYWGQGTTVTVSSGAGGSGGSSGSDGASGSRPEEPLVVKVEEGDNAVLQCLKGTSDGPTQQLTWSRESPLKPFLKLSLGLPGLGIHMRPLAIWLFIFNVSQQMGGFYLCQPGPPSEKAWQPGWTVNVEGSGELFRWNVSDLGGLGCGLKNRSSEGPSSPSGKLMSPKLYVWAKDRPEIWEGEPPCVPPRDSLNQSLSQDLTMAPGSTLWLSCGVPPDSVSRGPLSWTHVHPKGPKSLLSLELKDDRPARDMWVMETGLLLPRATAQDAGKYYCHRGNLTMSFHLEITAR", "notes": "also called bispecific protein of NG-1113; bispecific protein of NG-1115"}, "B6": {"name": "human CD19 EC domain-anti-EpCAM-ScFv fusion protein (without a C-terminal tag) (other)", "chain": "PEEPLVVKVEEGDNAVLQCLKGTSDGPTQQLTWSRESPLKPFLKLSLGLPGLGIHMRPLAIWLFIFNVSQQMGGFYLCQPGPPSEKAWQPGWTVNVEGSGELFRWNVSDLGGLGCGLKNRSSEGPSSPSGKLMSPKLYVWAKDRPEIWEGEPPCVPPRDSLNQSLSQDLTMAPGSTLWLSCGVPPDSVSRGPLSWTHVHPKGPKSLLSLELKDDRPARDMWVMETGLLLPRATAQDAGKYYCHRGNLTMSFHLEITARPVLWHWLLRTGGWKGGGGSELVMTQSPSSLTVTAGEKVTMSCKSSQSLLNSGNQKNYLTWYQQKPGQPPKLLIYWASTRESGVPDRFTGSGSGTDFTLTISSVQAEDLAVYYCQNDYSYPLTFGAGTKLEIKGGGGSGGGGSGGGGSEVQLLEQSGAELVRPGTSVKISCKASGYAFTNYWLGWVKQRPGHGLEWIGDIFPGSGNIHYNEKFKGKATLTADKSSSTAYMQLSSLTFEDSAVYFCARLRNWDEPMDYWGQGTTVTVSS", "notes": "also called bispecific protein of NG-1110"}, "B7": {"name": "anti-EpCAM-ScFv-flexible linker-RAET1G3 fusion protein (without a C-terminal tag) (other)", "chain": "ELVMTQSPSSLTVTAGEKVTMSCKSSQSLLNSGNQKNYLTWYQQKPGQPPKLLIYWASTRESGVPDRFTGSGSGTDFTLTISSVQAEDLAVYYCQNDYSYPLTFGAGTKLEIKGGGGSGGGGSGGGGSEVQLLEQSGAELVRPGTSVKISCKASGYAFTNYWLGWVKQRPGHGLEWIGDIFPGSGNIHYNEKFKGKATLTADKSSSTAYMQLSSLTFEDSAVYFCARLRNWDEPMDYWGQGTTVTVSSGAGGSGGSSGSDGASGSRGLADPHSLCYDITVIPKFRPGPRWCAVQGQVDEKTFLHYDCGSKTVTPVSPLGKKLNVTTAWKAQNPVLREVVDILTEQLLDIQLENYIPKENRMWTTVHPGARKMKEKWENDKDMTMSFHYISMGDCTGWLEDFLMGMDSTLEPSAGGTV", "notes": "also called bispecific protein of NG-1117"}, "B8": {"name": "anti-EpCAM-ScFv-rigid linker-human CD19 EC domain fusion protein (without a C-terminal tag) (other)", "chain": "ELVMTQSPSSLTVTAGEKVTMSCKSSQSLLNSGNQKNYLTWYQQKPGQPPKLLIYWASTRESGVPDRFTGSGSGTDFTLTISSVQAEDLAVYYCQNDYSYPLTFGAGTKLEIKGGGGSGGGGSGGGGSEVQLLEQSGAELVRPGTSVKISCKASGYAFTNYWLGWVKQRPGHGLEWIGDIFPGSGNIHYNEKFKGKATLTADKSSSTAYMQLSSLTFEDSAVYFCARLRNWDEPMDYWGQGTTVTVSSTPSHLSHILPSFGLPTFNPEEPLVVKVEEGDNAVLQCLKGTSDGPTQQLTWSRESPLKPFLKLSLGLPGLGIHMRPLAIWLFIFNVSQQMGGFYLCQPGPPSEKAWQPGWTVNVEGSGELFRWNVSDLGGLGCGLKNRSSEGPSSPSGKLMSPKLYVWAKDRPEIWEGEPPCVPPRDSLNQSLSQDLTMAPGSTLWLSCGVPPDSVSRGPLSWTHVHPKGPKSLLSLELKDDRPARDMWVMETGLLLPRATAQDAGKYYCHRGNLTMSFHLEITAR", "notes": "also called bispecific protein of NG-1114; bispecific protein of NG-1116"}}}
{"biological_target": "T1, EpCAM (human, UniProt P16422 24-314)", "T1 construct": "whole, on cells; also called EpCAM cell surface target antigen on A549 and SKOV3 cells", "T1 sequence (looked up)": "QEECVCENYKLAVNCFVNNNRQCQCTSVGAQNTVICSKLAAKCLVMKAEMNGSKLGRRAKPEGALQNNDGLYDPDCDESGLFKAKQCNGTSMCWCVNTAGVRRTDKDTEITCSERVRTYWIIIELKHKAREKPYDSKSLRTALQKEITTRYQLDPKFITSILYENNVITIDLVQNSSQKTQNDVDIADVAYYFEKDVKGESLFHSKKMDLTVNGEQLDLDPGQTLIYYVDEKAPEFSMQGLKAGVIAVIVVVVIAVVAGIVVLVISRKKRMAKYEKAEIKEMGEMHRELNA", "assay": "flow cytometry, supernatant of transfected A549 cells on fresh A549 cells", "experimental": "These plasmids were transfected into A549 human lung tumour cells and cells cultured for 72 hours. Cell culture supernatants (SN) containing secreted bispecific proteins were collected and added to fresh untransfected A549 cells in suspension and incubated for 1.5 hours at room temperature. During this time, the bispecific proteins present in the SN can bind to the A549 cells through their anti-EpCAM ScFv or anti-HER2 ScFV portion. […] For designs having CD19 as CAR-T target, the CD19 extracellular domain portion of the protein was detected by flow cytometry using an anti-CD19 antibody."}
{"binder": "B1", "binding result": "no binding"}
{"binder": "B2", "binding result": "binds"}
{"binder": "B3", "binding result": "binds"}
{"binder": "B4", "binding result": "binds"}
{"binder": "B5", "binding result": "binds"}
{"binder": "B6", "binding result": "no binding"}
{"binder": "B7", "binding result": "binds"}
{"binder": "B8", "binding result": "binds"}
